Experimental data published in patent US20230192896A1.

What was measured:
Assay in all cases: not given (FIG. 24A)
FX zymogen = FX zymogen (UniProt P00742)
[1] = molecular target: activated Factor X (FXa) (Homo sapiens (Human)) (UniProt P00742)
[2] = molecular target: free FIXa (activated Factor IX) (human) (UniProt P00740)
[3] = molecular target: FIX zymogen (non-activatable FIX) (UniProt P00740)

Measured: Kd

Chain of activated Factor X (FXa) (Homo sapiens (Human)) (P00742 41-179, chain 1 of 2): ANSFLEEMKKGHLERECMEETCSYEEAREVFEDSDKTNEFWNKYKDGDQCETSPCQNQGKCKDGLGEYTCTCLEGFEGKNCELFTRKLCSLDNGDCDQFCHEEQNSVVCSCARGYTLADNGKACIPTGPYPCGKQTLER
Chain of activated Factor X (FXa) (Homo sapiens (Human)) (P00742 235-488, chain 2 of 2): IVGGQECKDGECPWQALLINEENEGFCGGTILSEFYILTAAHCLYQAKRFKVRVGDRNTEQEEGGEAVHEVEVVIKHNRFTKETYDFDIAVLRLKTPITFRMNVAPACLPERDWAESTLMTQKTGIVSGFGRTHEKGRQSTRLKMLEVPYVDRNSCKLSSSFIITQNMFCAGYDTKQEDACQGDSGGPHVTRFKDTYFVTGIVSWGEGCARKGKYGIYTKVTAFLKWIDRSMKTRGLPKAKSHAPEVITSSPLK
Chain of FX zymogen (P00742 41-179, chain 1 of 2): as the sequence (P00742 41-179, chain 1 of 2) above
Chain of FX zymogen (P00742 183-488, chain 2 of 2): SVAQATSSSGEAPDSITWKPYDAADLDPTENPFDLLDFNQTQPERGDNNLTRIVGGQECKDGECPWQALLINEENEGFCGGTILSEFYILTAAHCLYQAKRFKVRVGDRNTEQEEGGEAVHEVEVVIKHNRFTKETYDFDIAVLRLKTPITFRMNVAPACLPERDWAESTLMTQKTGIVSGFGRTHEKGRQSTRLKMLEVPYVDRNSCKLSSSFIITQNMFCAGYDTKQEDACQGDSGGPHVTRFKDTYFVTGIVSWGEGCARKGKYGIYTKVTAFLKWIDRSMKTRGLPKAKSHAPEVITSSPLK

emicizumab (ACE910) sequence identical bispecific antibody (emicizumab biosimilar)
1000 nM: FX zymogen | [1] | [2] | [3]
